According to patent US12269859B2, “Synthetic immune receptors and methods of use thereof” (Angeles Therapeutics, Inc., priority 2016, dated 2025):

System: target antigen-expressing cell line
Assay: Jurkat NFAT-GFP assay, coculture with target cell lines expressing the respective target antigen (summary Table 10A)
Assay type: cell-based, human
Set-up: key: The signs +/−, +, 2+ etc. after the name of the cell lines indicate the relative degree of positivity on the Jurkat-NFAT-GFP assay as measured by the % GFP positive cells; +: relative degree of positivity on the Jurkat-NFAT-GFP assay as measured by the % GFP positive cells; 2+: relative degree of positivity on the Jurkat-NFAT-GFP assay as measured by the % GFP positive cells
In short: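 Readout is % GFP+ cells by FACS, graded +/− to 2+ relative to parental reporter cells. Jurkat-NFAT-GFP cells stably transduced with SIR constructs (puromycin-selected) were mixed with target-antigen-expressing cell lines at roughly 1:2 effector:target and cocultured ~4–18 h.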

Row | Molecule | NFAT-GFP ASSAY Positive Cell lines (coculture with L428 cells) | NFAT-GFP ASSAY Positive Cell lines (coculture with L363 cells) | NFAT-GFP ASSAY Positive Cell lines (coculture with U266 cells)
1 | 082317-G04 (protein) MALPVTALLLPLALLLHAARPLEGKPIPNPLLGLDSTGSGEDLKNVFPPEVAVFEPSKAEIAHTQKATLVCLATGFYPDHVELSWWVNGKEVHSGVCTDPQPLKEQPALNDSRYCLSSRLRVSATFWQNPRNHFRCQVQFYGLSENDEWTQDRAKPVTQIVSAEAWGRADCGITSASYHQGVLSATILYEILLGKATLYAVLVSALVLMAMVKRKDSRGRAKRSGSGATNFSLLKQAGDVEENPGPTSMALPVTALLLPLALLLHAARPQIVLTQSPAIMSASPGEKVTITCSASSSVSYMHWFQQKPGTSPKLWIYSTSNLASGVPARFSGSGSGTSYSLTISRMEAEDAATYYCQQRSSYPPTFGGGTKLEIKGGGGSGGGGSGGGGSQVQLQQSGAELMKPGASVKISCKATGYTFSSYWIEWVKQRPGHGLEWIGEILPGSGSTNYNEKFKGKATFTADTSSNTAYMQLSSLTSEDSAVYYCARYDYPWFAYWGQGTLVTVSATREQKLISEEDGSGIQNPDPAVYQLRDSKSSDKSVCLFTDFDSQTNVSQSKDSDVYITDKCVLDMRSMDFKSNSAVAWSNKSDFACANAFNNSIIPEDTFFPSSDVPCDVKLVEKSFETDTNLNFQNLSVIGFRILLLKVAGFNLLMTLRLWSSRAKRSGSGVKQTLNFDLLKLAGDVESNPGPSRGHMTEYKPTVRLATRDDVPRAVRTLAAAFADYPATRHTVDPDRHIERVTELQELFLTRVGLDIGKVWVADDGAAVAVWTTPESVEAGAVFAEIGPRMAELSGSRLAAQQQMEGLLAPHRPKEPAWFLATVGVSPDHQGKGLGSAVVLPGVEAAERAGVPAFLETSAPRNLPFYERLGFTVTADVEVPEGPRTWCMTRKPGA | L428 (+/−) |  | 
2 | 110116-H02 (protein, Synthetic Immune Receptor (SIR)) MALPVTALLLPLALLLHAARPLEQKLISEEDLGSGDRPDPAVYQLRDSKSSDKSVCLFTDFDSQTNVSQSKDSDVYITDKCVLDMRSMDFKSNSAVAWSNKSDFACANAFNNSIIPEDTFFPSPESSCDVKLVEKSFETDTNLNFQNLSVIGFRILLLKVAGFNLLMTLRLWSSSSRAKRSGSGVKQTLNFDLLKLAGDVESNPGPTSMALPVTALLLPLALLLHAARPDIQMTQSTSSLSASLGDRVTISCSASQGINNYLNWYQQKPDGTVELLIYYTSTLQSGVPSRFSGSGSGTDYSLTISNLEPEDIGTYYCQQYSKLPRTFGGGTKLEIKGGGGSGGGGSGGGGSQVQLQQSGSELMMPGASVKISCKATGYTFSNYWIEWVKQRPGHGLEWIGEILPGTGRTIYNEKFKGKATFTADISSNTVQMQLSSLTSEDSAVYYCARRDYYGNFYYAMDYWGQGTSVTVSSTRGKPIPNPLLGLDSTGSGEDLKNVFPPEVAVFEPSEAEISHTQKATLVCLATGFYPDHVELSWWVNGKEVHSGVCTDPQPLKEQPALNDSRYCLSSRLRVSATFWQNPRNHFRCQVQFYGLSENDEWTQDRAKPVTQIVSAEAWGRADCGFTSESYQQGVLSATILYEILLGKATLYAVLVSALVLMAMVKRKDSRGRAKRSGSGATNFSLLKQAGDVEENPGPSRGHMTEYKPTVRLATRDDVPRAVRTLAAAFADYPATRHTVDPDRHIERVTELQELFLTRVGLDIGKVWVADDGAAVAVWTTPESVEAGAVFAEIGPRMAELSGSRLAAQQQMEGLLAPHRPKEPAWFLATVGVSPDHQGKGLGSAVVLPGVEAAERAGVPAFLETSAPRNLPFYERLGFTVTADVEVPEGPRTWCMTRKPGA |  | L363 (+/−), U266 | (+)
